According to patent US20210388110A1:
Positions count from the first letter of the chain named. Values joined by “and” are separate entries in the source; they are usually repeats but may differ in a detail not shown here. Identical values can stand only once.

B1: TR01H040-E2702GsKsc/H0610-E2704sEpsc/L0208-k0 (bispecific antibody, human IgG4 S228P, kappa, N297A)
heavy 1: QVQLVESGGGLVQPGRSLRLSCAASGFTFSNAWMHWVRQAPGKGLEWVAQIKDKSQNYATYYAESVKGRFTISRADSKNSIYLQMNSLKTEDTAVYYCRYVHYSASYGVDAWGQGTTVTVSSASTKGPSVFPLAPCSRSTSESTAALGCLVKDYFPEPVTVSWNSGALTSGVHTFPAVLQSSGLYSLSSVVTVPSSSLGTKTYTCNVDHKPSNTKVDKRVESKYGPPCPPCPAPEFRGGPKVFLFPPKPKDTLMISRTPEVTCVVVDVSQEDPEVQFNWYVDGVEVHNAKTKPREEQFASTYRVVSVLTVLHQDWLNGKEYKCKVSNKGLPSSIEKTISKAKGQPREPQVYTLPPSQKEMTKNQVSLTCLVKGFYPSDIAVEWESNGQPENNYKTTPPVLDSDGSFFLYSKLTVDKSRWQEGNVFSCSVMHEALHNRYTQKSLSLSP
heavy 2: QVQLVQSGAEVKKPGASVKVSCKASGYTFTDYEMHWIRQPPGQGLEWIGAIDGKTPDTAYSQKFKGRVTLTADKSTSTAYMELSSLTSEDTAVYYCTRFYSYTYWGQGTLVTVSSASTKGPSVFPLAPCSRSTSESTAALGCLVKDYFPEPVTVSWNSGALTSGVHTFPAVLQSSGLYSLSSVVTVPSSSLGTQTYTCNVDHKPSNTKVDKRVESKYGPPCPPCPAPEFRGGPKVFLFPPKPKDTLMISRTPEVTCVVVDVSQEDPEVQFNWYVDGVEVHNAKTKPREEQFASTYRVVSVLTVLHQDWLNGKEYKCKVSNKGLPSSIEKTISKAKGQPREPQVYTLPPSQEEMTKNQVSLTCLVKGFYPSDIAVEWESNGQPENNYKTTPPVLDSDGSFFLYSKLTVDKSRWQEGNVFSCSVMHEALHNHYTQESLSLSP
light: DIVMTQSPLSLPVTPGEPASISCRSSQSPVHSNRNTYLHWYQQKPGQAPRLLIYKVSNRFWGVPDRFSGSGSGTDFTLKISRVEAEDVGVYYCYQGTQVPYTFGQGTKLEIKRTVAAPSVFIFPPSDEQLKSGTASVVCLLNNFYPREAKVQWKVDNALQSGNSQESVTEQDSKDSTYSLSSTLTLSKADYEKHKVYACEVTHQGLSSPVTKSFNRGEC
B2: TR01H040-E2702GsKsc/H0610-E2704sEpsc/L0211-k0 (bispecific antibody, human IgG4 S228P, kappa, N297A)
heavy 1: B1 heavy 1
heavy 2: B1 heavy 2
light: B1 light with S28P, W61S
B3: TR01H084-E2702GsKsc/L0011-k0 (antibody, human IgG4 S228P, kappa, N297A)
heavy: B1 heavy 1 with L11V, R16G, S104A, S106G, A111I
light: B1 light with S28P, P29L, W61S, Y94G
B4: TR01H110-E2702GsKsc/L0011-k0 (antibody, human IgG4 S228P, kappa, N297A)
heavy: B1 heavy 1 with L11V, R19K, A75D, I81L, S104A, S106G
light: B1 light with S28P, P29L, W61S, Y94G
B5: TR01H090-E2702GsKsc/L0011-k0 (antibody, human IgG4 S228P, kappa, N297A)
heavy: B1 heavy 1 with R16G, A75D, I81L, S104A, S106G
light: B1 light with S28P, P29L, W61S, Y94G
B6: TR01H091-E2702GsKsc/L0011-k0 (antibody, human IgG4 S228P, kappa, N297A)
heavy: B1 heavy 1 with R19K, A75D, I81L, S104A, S106G
light: B1 light with S28P, P29L, W61S, Y94G
B7: TR01H082-E2702GsKsc/L0011-k0 (antibody, human IgG4 S228P, kappa, N297A)
heavy: B1 heavy 1 with A75D, I81L, S104A, S106G
light: B1 light with S28P, P29L, W61S, Y94G
B8: TR01H111-E2702GsKsc/L0011-k0 (antibody, human IgG4 S228P, kappa, N297A)
heavy: B1 heavy 1 with L11V, R16G, R19K, S104A, S106G, A111I
light: B1 light with S28P, P29L, W61S, Y94G
B9: TR01H093-E2702GsKsc/L0011-k0 (antibody, human IgG4 S228P, kappa, N297A, V domains shown)
VH: QVQLVESGGGLVQPGRSLRLSCAASGFTFSNAWMHWVRQAPGKGLEWVAQIKDKSQNYATYYAESVQGRFTISRDDSKNSLYLQMNSLKTEDTAVYYCRYVHYAAGYGVDAWGQGTTVTVSS
VL: DIVMTQSPLSLPVTPGEPASISCRSSQPLVHSNRNTYLHWYQQKPGQAPRLLIYKVSNRFSGVPDRFSGSGSGTDFTLKISRVEAEDVGVYYCGQGTQVPYTFGQGTKLEIKR
B10: TR01H102-E2702GsKsc/L0011-k0 (antibody, human IgG4 S228P, kappa, N297A, V domains shown)
VH: B9 VH with Y62F, Q67K
VL: B9 VL
B11: TR01H105-E2702GsKsc/L0011-k0 (antibody, human IgG4 S228P, kappa, N297A, V domains shown)
VH: B9 VH with Y62L, Q67K
VL: B9 VL
B12: TR01H094-E2702GsKsc/L0011-k0 (antibody, human IgG4 S228P, kappa, N297A, V domains shown)
VH: B9 VH with Q67S
VL: B9 VL
B13: TR01H103-E2702GsKsc/L0011-k0 (antibody, human IgG4 S228P, kappa, N297A, V domains shown)
VH: B9 VH with Y62G, Q67K
VL: B9 VL
B14: TR01H113-E2702GsKsc/L0011-k0 (antibody, human IgG4 S228P, kappa, N297A, V domains shown)
VH: B9 VH with L11V, R16G, Y62V, Q67K, D75A, L81I, A111I
VL: B9 VL
B15: TR01H099-E2702GsKsc/L0011-k0 (antibody, human IgG4 S228P, kappa, N297A, V domains shown)
VH: B9 VH with T60Q, Q67K
VL: B9 VL
B16: TR01H114-E2702GsKsc/L0011-k0 (antibody, human IgG4 S228P, kappa, N297A, V domains shown)
VH: B9 VH with L11V, R16G, T60S, Q67K, D75A, L81I, A111I
VL: B9 VL
B17: TR01H107-E2702GsKsc/L0011-k0 (antibody, human IgG4 S228P, kappa, N297A, V domains shown)
VH: B9 VH with Y62Q, Q67K
VL: B9 VL
B18: TR01H104-E2702GsKsc/L0011-k0 (antibody, human IgG4 S228P, kappa, N297A, V domains shown)
VH: B9 VH with Y62I, Q67K
VL: B9 VL
B19: TR01H098-E2702GsKsc/L0011-k0 (antibody, human IgG4 S228P, kappa, N297A, V domains shown)
VH: B9 VH with T60P, Q67K
VL: B9 VL
B20: TR01H101-E2702GsKsc/L0011-k0 (antibody, human IgG4 S228P, kappa, N297A, V domains shown)
VH: B9 VH with T60V, Q67K
VL: B9 VL
B21: TR01H097-E2702GsKsc/L0011-k0 (antibody, human IgG4 S228P, kappa, N297A, V domains shown)
VH: B9 VH with T60L, Q67K
VL: B9 VL
B22: TR01H109-E2702GsKsc/L0011-k0 (antibody, human IgG4 S228P, kappa, N297A, V domains shown)
VH: B9 VH with Y62V, Q67K
VL: B9 VL
B23: TR01H100-E2702GsKsc/L0011-k0 (antibody, human IgG4 S228P, kappa, N297A, V domains shown)
VH: B9 VH with T60S, Q67K
VL: B9 VL
B24: TR01H108-E2702GsKsc/L0011-k0 (antibody, human IgG4 S228P, kappa, N297A, V domains shown)
VH: B9 VH with Y62T, Q67K
VL: B9 VL
B25: TR01H112-E2702GsKsc/L0011-k0 (antibody, human IgG4 S228P, kappa, N297A, V domains shown)
VH: B9 VH with L11V, R16G, T60Q, Q67K, D75A, L81I, A111I
VL: B9 VL
B26: TR01H096-E2702GsKsc/L0011-k0 (antibody, human IgG4 S228P, kappa, N297A, V domains shown)
VH: B9 VH with T60G, Q67K
VL: B9 VL
B27: TR01H092-E2702GsKsc/L0011-k0 (antibody, human IgG4 S228P, kappa, N297A, V domains shown)
VH: B9 VH with Q67A
VL: B9 VL
B28: TR01H095-E2702GsKsc/L0011-k0 (antibody, human IgG4 S228P, kappa, N297A, V domains shown)
VH: B9 VH with T60F, Q67K
VL: B9 VL
B29: TR01H106-E2702GsKsc/L0011-k0 (antibody, human IgG4 S228P, kappa, N297A, V domains shown)
VH: B9 VH with Y62P, Q67K
VL: B9 VL

Target: extracellular matrix (BD Matrigel)
Experiment: ECL on Matrigel-coated plate, relative to MRAH-G1d/MRAL-k0

Question: B1 was tested. Which ECM binding ratio (standard = 1) did it give?
Answer: 50.4

Question: Which ECM binding ratio (standard = 1) does the source give for B2 here?
Answer: 15.5

Target: Mab Select SuRe Ligand
Experiment: SPR (Biacore T200), SuRe ligand on CM5 chip, antibody 5 ug/mL

Question: For B3, which SuRe binding (RU) is on record?
Answer: 5070 RU

Question: How did the SuRe binding (RU) turn out when B4 was run?
Answer: 29.5 RU

Question: For B5, which SuRe binding (RU) is on record?
Answer: 3610 RU

Question: B6 was tested. Which SuRe binding (RU) did it give?
Answer: 27.5 RU and 15 RU

Question: For B7, which SuRe binding (RU) is on record?
Answer: 4470 RU

Question: With B8 as the binder, how does the SuRe binding (RU) read?
Answer: 50.7 RU

Question: Which SuRe binding (RU) does the source give for B9 here?
Answer: 2460 RU

Question: With B10 as the binder, how does the SuRe binding (RU) read?
Answer: 0.5 RU

Question: B11 was tested. Which SuRe binding (RU) did it give?
Answer: 0.8 RU

Question: How did the SuRe binding (RU) turn out when B12 was run?
Answer: 2350 RU

Question: For B13, which SuRe binding (RU) is on record?
Answer: 1.4 RU

Question: With B14 as the binder, how does the SuRe binding (RU) read?
Answer: 7 RU

Question: B15 was tested. Which SuRe binding (RU) did it give?
Answer: 0.6 RU

Question: With B16 as the binder, how does the SuRe binding (RU) read?
Answer: 1490 RU

Question: How did the SuRe binding (RU) turn out when B17 was run?
Answer: 1.4 RU

Question: With B18 as the binder, how does the SuRe binding (RU) read?
Answer: 1 RU

Question: For B19, which SuRe binding (RU) is on record?
Answer: 1.6 RU

Question: Which SuRe binding (RU) does the source give for B20 here?
Answer: 0.5 RU

Question: B21 was tested. Which SuRe binding (RU) did it give?
Answer: 0.1 RU

Question: How did the SuRe binding (RU) turn out when B22 was run?
Answer: 2.2 RU

Question: How did the SuRe binding (RU) turn out when B23 was run?
Answer: 383 RU

Question: With B24 as the binder, how does the SuRe binding (RU) read?
Answer: 0.4 RU

Question: B25 was tested. Which SuRe binding (RU) did it give?
Answer: 8.8 RU

Question: For B26, which SuRe binding (RU) is on record?
Answer: 2.7 RU

Question: With B27 as the binder, how does the SuRe binding (RU) read?
Answer: 1160 RU

Question: Which SuRe binding (RU) does the source give for B28 here?
Answer: -0.2 RU

Question: How did the SuRe binding (RU) turn out when B29 was run?
Answer: 0 RU
